From PMC3483155, “Inhibition of Pre-mRNA Splicing by a Synthetic Blom7α-Interacting Small RNA” come the findings set out here.

One series has as its target Blom7-KH (Homo sapiens, UniProt Q7Z7F0 1-317). As to the kind of experiment: EMSA; 1 mM Mg2+; 20 nM RNA, 0-50 nM protein; EMSA: PBS pH 7.5, 1 mM MgCl2, 1 mM DTT, 5% glycerol, 20 min at room temperature, gel at 4°C; SPR: 1x PBS, 1 mM Mg acetate, pH 7.0 (or HEPES + 3 mM Mg acetate). As to conditions: protein: recombinant; tags: His6 (C-terminal as named, pET30A); label: 3' biotin; single strand. A general note: In EMSA bound probe runs differently from free probe, usually more slowly.

In a further series the target is Blom7α wt (Homo sapiens, UniProt Q7Z7F0 1-614). Described as above.

B1: AK48 (ssRNA)
RNA: UGCCCCAAUCCUACACGACCCAAGGCCCCC
B1: the binding result with Blom7-KH and with Blom7α wt was “binds” each time.
